Blank lines part the entries; values can stand above or below the substance they belong to.
Experiments:
[1] = molecular target: GFAT1 (UniProt Q06210); assay: His-TAB1 pull-down after JNK reaction; details: reference: His-TAB1 WT treated with JNK; sites S438
[2] = molecular target: GFAT1 (UniProt Q06210); assay: GST pull-down after in vitro kinase reaction; details: sites S438
[3] = molecular target: GFAT1 (UniProt Q06210); assay: co-immunoprecipitation of TAB1 mutants; details: reference: wild type; sites S438

binding against the reference [1]: weaker
Substance: TAB1 (from UniProt Q15750) His-TAB1-S438A treated with JNK

binding against the reference ([2]; reference: His-TAB1 WT treated with JNK1): weaker
Substance: TAB1 (from UniProt Q15750) His-TAB1-S438A treated with JNK1

binding against the reference ([2]; reference: His-TAB1 WT treated with p38α): weaker
Substance: TAB1 (from UniProt Q15750) His-TAB1-S438A treated with p38α

binding against the reference [3]: weaker
Substance: TAB1 (from UniProt Q15750) S438A

Reference: publication PMC9363421
